Here are results for 33 variants from the Human Domainome abundance scans (Beltran et al. 2025).

B1: POU domain, class 4, transcription factor 1, residues 266 to 347; numbered along this chain, Q01851 (parent)
chain: RELEAFAERFKQRRIKLGVTQADVGSALANLKIPGVGSLSQSTICRFESLTLSHNNMIALKPILQAWLEEAEGAQREKMNKP

± gives the uncertainty stated by the source.

In the data set the parent is B1. The data set can be described thus: abundance fitness (aPCA) (normalised: wild type 0, dead -1); higher = more abundant; growth selection in yeast, the domain comes from the species named. As to conditions: Homo sapiens.
Consider RELEAFAERFKQRRIKLGVTQADVGSALANLKIPGVGSLSQSTICRFESLTLSHNNMIALKPILQAWLERAEGAQREKMNKP [E70R], for which the abundance fitness is -0.046 ± 0.022.

Turning to RELEAFAERFKQRRIKLGVTQADVGSALANLKIPGVGSLSQSTICRFESLTLSHNNMIALKPILQAWLEGAEGAQREKMNKP [E70G], the abundance fitness is -0.061 ± 0.023.

With RELEAFAERFKQRRIKLGVTQADVGSALANLKIPGVGSLSQSTICRFESLTLSHNNMIALKPILQAWLEHAEGAQREKMNKP [E70H], the abundance fitness was -0.077 ± 0.046.

For the variant RELEAFAERFKQRRIKLGVTQADVGSALANLKIPGVGSLSQSTICRFESLTLSHNNMIALKPILQAWLESAEGAQREKMNKP [E70S], the abundance fitness is -0.006 ± 0.03.

Take RELEAFAERFKQRRIKLGVTQADVGSALANLKIPGVGSLSQSTICRFESLTLSHNNMIALKPILQAWLEMAEGAQREKMNKP [E70M]: the abundance fitness is -0.1 ± 0.032.

In the case of RELEAFAERFKQRRIKLGVTQADVGSALANLKIPGVGSLSQSTICRFESLTLSHNNMIALKPILQAWLECAEGAQREKMNKP [E70C], the abundance fitness was -0.125 ± 0.037.

For RELEAFAERFKQRRIKLGVTQADVGSALANLKIPGVGSLSQSTICRFESLTLSHNNMIALKPILQAWLEQAEGAQREKMNKP [E70Q], the abundance fitness is -0.015 ± 0.034.

For RELEAFAERFKQRRIKLGVTQADVGSALANLKIPGVGSLSQSTICRFESLTLSHNNMIALKPILQAWLELAEGAQREKMNKP [E70L], the abundance fitness is -0.18 ± 0.029.

Consider RELEAFAERFKQRRIKLGVTQADVGSALANLKIPGVGSLSQSTICRFESLTLSHNNMIALKPILQAWLEAAEGAQREKMNKP [E70A], for which the abundance fitness was -0.07 ± 0.027.

For RELEAFAERFKQRRIKLGVTQADVGSALANLKIPGVGSLSQSTICRFESLTLSHNNMIALKPILQAWLEPAEGAQREKMNKP [E70P], the abundance fitness was -0.657 ± 0.052.

Consider RELEAFAERFKQRRIKLGVTQADVGSALANLKIPGVGSLSQSTICRFESLTLSHNNMIALKPILQAWLEKAEGAQREKMNKP [E70K], for which the abundance fitness is 0.004 ± 0.035.

With RELEAFAERFKQRRIKLGVTQADVGSALANLKIPGVGSLSQSTICRFESLTLSHNNMIALKPILQAWLEFAEGAQREKMNKP [E70F], the abundance fitness is -0.198 ± 0.044.

As to RELEAFAERFKQRRIKLGVTQADVGSALANLKIPGVGSLSQSTICRFESLTLSHNNMIALKPILQAWLETAEGAQREKMNKP [E70T], the abundance fitness was -0.026 ± 0.035.

Consider RELEAFAERFKQRRIKLGVTQADVGSALANLKIPGVGSLSQSTICRFESLTLSHNNMIALKPILQAWLEIAEGAQREKMNKP [E70I], for which the abundance fitness was -0.161 ± 0.053.

With RELEAFAERFKQRRIKLGVTQADVGSALANLKIPGVGSLSQSTICRFESLTLSHNNMIALKPILQAWLEDAEGAQREKMNKP [E70D], the abundance fitness is -0.018 ± 0.037.

Take RELEAFAERFKQRRIKLGVTQADVGSALANLKIPGVGSLSQSTICRFESLTLSHNNMIALKPILQAWPEEAEGAQREKMNKP [L68P]: the abundance fitness was -0.715 ± 0.18.

As to RELEAFAERFKQRRIKLGVTQADVGSALANLKIPGVGSLSQSTICRFESLTLSHNNMIALKPILQAWREEAEGAQREKMNKP [L68R], the abundance fitness was -0.774 ± 0.12.

For the variant RELEAFAERFKQRRIKLGVTQADVGSALANLKIPGVGSLSQSTICRFESLTLSHNNMIALKPILQAWHEEAEGAQREKMNKP [L68H], the abundance fitness was -0.329 ± 0.22.

Turning to RELEAFAERFKQRRIKLGVTQADVGSALANLKIPGVGSLSQSTICRFESLTLSHNNMIALKPILQAWIEEAEGAQREKMNKP [L68I], the abundance fitness was found to be 0.037 ± 0.21.

Take RELEAFAERFKQRRIKLGVTQADVGSALANLKIPGVGSLSQSTICRFESLTLSHNNMIALKPILQAWMEEAEGAQREKMNKP [L68M]: the abundance fitness is -0.112 ± 0.069.

Turning to RELEAFAERFKQRRIKLGVTQADVGSALANLKIPGVGSLSQSTICRFESLTLSHNNMIALKPILQAWCEEAEGAQREKMNKP [L68C], the abundance fitness is -0.29 ± 0.08.

For RELEAFAERFKQRRIKLGVTQADVGSALANLKIPGVGSLSQSTICRFESLTLSHNNMIALKPILQAWGEEAEGAQREKMNKP [L68G], the abundance fitness is -0.821 ± 0.11.

On to RELEAFAERFKQRRIKLGVTQADVGSALANLKIPGVGSLSQSTICRFESLTLSHNNMIALKPILQAWYEEAEGAQREKMNKP [L68Y], for which the abundance fitness is -0.304 ± 0.17.

As for RELEAFAERFKQRRIKLGVTQADVGSALANLKIPGVGSLSQSTICRFESLTLSHNNMIALKPILQAWWEEAEGAQREKMNKP [L68W], the abundance fitness is -0.626 ± 0.1.

Regarding RELEAFAERFKQRRIKLGVTQADVGSALANLKIPGVGSLSQSTICRFESLTLSHNNMIALKPILQAWTEEAEGAQREKMNKP [L68T], the abundance fitness was -0.459 ± 0.12.

Consider RELEAFAERFKQRRIKLGVTQADVGSALANLKIPGVGSLSQSTICRFESLTLSHNNMIALKPILQAWVEEAEGAQREKMNKP [L68V], for which the abundance fitness was -0.074 ± 0.051.

As to RELEAFAERFKQRRIKLGVTQADVGSALANLKIPGVGSLSQSTICRFESLTLSHNNMIALKPILQAWSEEAEGAQREKMNKP [L68S], the abundance fitness is -0.497 ± 0.08.

As to RELEAFAERFKQRRIKLGVTQADVGSALANLKIPGVGSLSQSTICRFESLTLSHNNMIALKPILQAWEEEAEGAQREKMNKP [L68E], the abundance fitness was -0.672 ± 0.17.

In the case of RELEAFAERFKQRRIKLGVTQADVGSALANLKIPGVGSLSQSTICRFESLTLSHNNMIALKPILQAWQEEAEGAQREKMNKP [L68Q], the abundance fitness is -0.568 ± 0.095.

Consider RELEAFAERFKQRRIKLGVTQADVGSALANLKIPGVGSLSQSTICRFESLTLSHNNMIALKPILQAYLEEAEGAQREKMNKP [W67Y], for which the abundance fitness is -0.175 ± 0.18.

RELEAFAERFKQRRIKLGVTQADVGSALANLKIPGVGSLSQSTICRFESLTLSHNNMIALKPILQAQLEEAEGAQREKMNKP [W67Q]: the abundance fitness was -0.712 ± 0.13.

For the variant RELEAFAERFKQRRIKLGVTQADVGSALANLKIPGVGSLSQSTICRFESLTLSHNNMIALKPILQACLEEAEGAQREKMNKP [W67C], the abundance fitness is -0.939 ± 0.32.

With RELEAFAERFKQRRIKLGVTQADVGSALANLKIPGVGSLSQSTICRFESLTLSHNNMIALKPILQANLEEAEGAQREKMNKP [W67N], the abundance fitness was -0.65 ± 0.31.
